In paper PMC3563690 (The Journal of Cell Biology, 2013):

T1: HA-tagged mouse MDGA2 (mouse)
T1 sequence (P60755 whole entry, looked up): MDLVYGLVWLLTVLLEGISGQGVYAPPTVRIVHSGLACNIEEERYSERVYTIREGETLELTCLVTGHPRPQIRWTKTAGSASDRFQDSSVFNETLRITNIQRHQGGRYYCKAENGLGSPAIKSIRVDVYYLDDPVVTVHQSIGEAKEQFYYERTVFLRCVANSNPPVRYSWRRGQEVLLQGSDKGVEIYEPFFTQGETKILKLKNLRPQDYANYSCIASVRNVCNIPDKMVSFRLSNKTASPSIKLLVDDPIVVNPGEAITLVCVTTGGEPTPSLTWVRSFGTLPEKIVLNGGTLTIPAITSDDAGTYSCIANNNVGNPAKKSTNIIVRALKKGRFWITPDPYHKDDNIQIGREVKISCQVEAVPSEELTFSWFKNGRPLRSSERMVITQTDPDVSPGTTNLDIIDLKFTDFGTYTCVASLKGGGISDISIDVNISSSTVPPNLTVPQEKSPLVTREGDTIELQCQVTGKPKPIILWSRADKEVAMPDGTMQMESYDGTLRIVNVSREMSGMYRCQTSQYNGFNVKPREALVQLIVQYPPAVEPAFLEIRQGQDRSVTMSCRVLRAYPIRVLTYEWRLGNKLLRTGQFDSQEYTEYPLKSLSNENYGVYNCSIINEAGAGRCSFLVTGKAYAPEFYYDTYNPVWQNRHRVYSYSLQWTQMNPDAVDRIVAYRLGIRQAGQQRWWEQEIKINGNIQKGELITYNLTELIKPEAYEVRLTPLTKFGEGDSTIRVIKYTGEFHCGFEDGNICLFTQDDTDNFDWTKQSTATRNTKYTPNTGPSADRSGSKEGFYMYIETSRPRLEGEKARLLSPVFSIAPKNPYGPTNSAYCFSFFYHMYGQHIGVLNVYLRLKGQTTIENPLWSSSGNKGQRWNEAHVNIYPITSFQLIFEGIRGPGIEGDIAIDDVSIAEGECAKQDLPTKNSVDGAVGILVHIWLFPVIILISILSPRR

T2: extracellular HA-tagged rat MDGA1 (rat, UniProt P85171 19-933)
T2 sequence (looked up): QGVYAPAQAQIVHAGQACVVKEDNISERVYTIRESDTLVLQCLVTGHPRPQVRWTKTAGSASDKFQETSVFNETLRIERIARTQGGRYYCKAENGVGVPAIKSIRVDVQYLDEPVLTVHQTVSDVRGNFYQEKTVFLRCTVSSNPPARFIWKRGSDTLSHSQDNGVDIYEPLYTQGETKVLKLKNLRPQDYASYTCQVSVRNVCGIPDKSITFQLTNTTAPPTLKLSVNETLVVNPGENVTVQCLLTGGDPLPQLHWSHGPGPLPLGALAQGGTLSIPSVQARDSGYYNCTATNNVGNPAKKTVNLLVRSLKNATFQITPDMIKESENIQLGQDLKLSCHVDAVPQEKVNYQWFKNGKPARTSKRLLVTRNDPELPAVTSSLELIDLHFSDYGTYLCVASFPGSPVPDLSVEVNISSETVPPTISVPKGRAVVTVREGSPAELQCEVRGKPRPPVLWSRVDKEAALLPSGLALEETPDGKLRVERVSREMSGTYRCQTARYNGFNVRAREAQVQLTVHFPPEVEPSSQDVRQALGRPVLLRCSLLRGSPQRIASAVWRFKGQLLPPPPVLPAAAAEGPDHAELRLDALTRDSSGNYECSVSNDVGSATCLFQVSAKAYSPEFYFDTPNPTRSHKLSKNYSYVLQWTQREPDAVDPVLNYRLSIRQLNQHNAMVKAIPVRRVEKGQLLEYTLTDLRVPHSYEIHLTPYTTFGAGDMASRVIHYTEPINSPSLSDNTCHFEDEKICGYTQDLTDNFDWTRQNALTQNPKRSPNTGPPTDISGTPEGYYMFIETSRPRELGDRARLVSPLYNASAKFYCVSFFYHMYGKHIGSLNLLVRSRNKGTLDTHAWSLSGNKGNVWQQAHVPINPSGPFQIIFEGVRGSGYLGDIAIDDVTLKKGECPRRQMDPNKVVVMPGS


How the values were obtained:
Assay in all cases: immunostaining of cells or tissue
[1] = target: HA-neurexin1β(−S4) (mouse | rat)
[2] = target: T1, HA-tagged mouse MDGA2 (mouse)
[3] = target: T2, extracellular HA-tagged rat MDGA1

| Molecule | Kd [1] [nM] | Kd [2] [nM] | Kd [3] [nM] |
| --- | --- | --- | --- |
| soluble neuroligin-2–Fc fusion protein (from UniProt Q69ZK9 15-676) | 8.4 | 45.9 |  |
| soluble neuroligin-2–Fc fusion protein (Fc fusion, UniProt Q69ZK9 15-676, looked up) QRGGGGPGGGAPGGPGLGLGSLGEERFPVVNTAYGRVRGVRRELNNEILGPVVQFLGVPYATPPLGARRFQPPEAPASWPGVRNATTLPPACPQNLHGALPAIMLPVWFTDNLEAAATYVQNQSEDCLYLNLYVPTEDGPLTKKRDEATLNPPDTDIRDSGKKPVMLFLHGGSYMEGTGNMFDGSVLAAYGNVIVVTLNYRLGVLGFLSTGDQAAKGNYGLLDQIQALRWLSENIAHFGGDPERITIFGSGAGASCVNLLILSHHSEGLFQKAIAQSGTAISSWSVNYQPLKYTRLLAAKVGCDREDSTEAVECLRRKSSRELVDQDVQPARYHIAFGPVVDGDVVPDDPEILMQQGEFLNYDMLIGVNQGEGLKFVEDSAESEDGVSASAFDFTVSNFVDNLYGYPEGKDVLRETIKFMYTDWADRDNGEMRRKTLLALFTDHQWVAPAVATAKLHADYQSPVYFYTFYHHCQAEGRPEWADAAHGDELPYVFGVPMVGATDLFPCNFSKNDVMLSAVVMTYWTNFAKTGDPNQPVPQDTKFIHTKPNRFEEVVWSKFNSKEKQYLHIGLKPRVRDNYRANKVAFWLELVPHLHNLHTELFTTTTRLPPYATRWPPRTPGPGTSGTRRPPPPATLPPESDIDLGPRAYDRFPGDSRDYSTE |  |  | 7.3 |
